From patent publication US20220289866A1 (University of California, published 2022)
Where a chain is given by its changes, count along the chain named. Non-standard residues stand in square brackets, D forms with d. No end group written: not given here. *: point of attachment. ARS‑1620 (S-atropisomer) = O=C(CC*)N1CCN(c2ncnc3c(F)c(-c4c(O)cccc4F)c(Cl)cc23)CC1; Nle = CCCC[C@H](N)C(=O)O

B1: P2F10 Fab (Fab, V domains shown)
VH: EVQLVESGGGVVQPGRSLRLSCAASGFTFSNYAMHWVRQAPGKGLEWVALISYDGSITYYADSVKGRFTISRDNSKDTLYLQMNSLRPEDTTLYYCARERVPYDYYGMAVWGQGTTVTVSS
VL: QSVLTQPPSVSAAPGQKVTISCSGSASNIGSNHVSWYQHVPGTAPQLLIYDDKQRPSGIPDRFSGSKSGTSAALAITGLQTGDEADYYCATWDNSLASAFFGGGTKLTVLS
notes: Fab from a human naive Fab-phage library
B2: P1A4 Fab (Fab, V domains shown)
VH: QVQLQESGGGLVQPGRSLRLSCAASGFTFSSYAMHWVRQAPGKGLEWVAVISYDGSNKYYADSVKGRFTISRDNSKNTLYLQMNSLRAEDTAVYYCARDYDWQYFDYWGQGTLVTVSS
VL: QSVVTQPPSVSAAPGQEVTISCSGSSSNIGNNYVSWYQHLPGTAPKLLIYDSDKRPSGIPDRFSGSKSGTSATLGVTGLQTGDEADYYCGTWDSSLSAVMFGGGTKLTVLG
B3: P2G5 Fab (Fab, V domains shown)
VH: QVQLLESGGGVVQPGRSLRLSCAASGFTFSSYAMHWVRQAPGKGLEWLASISYDGSNKFHADSVKGRFTISRDNSKSTLYLQMNSLRAEDTAVYYCVRERVPWDYDGMDVWGQGTTVTVSS
VL: QSVVTQPPSVSAAPGQKVTVSCSGSNSNIGDNYVSWYQLLPGTAPKLLIYDNNKRPSGILDRFSGSKSGTSATLDITGLQTGDEADYYCGTWDSSLLTVVFGGGTKLTVLG
notes: Fab from a human naive Fab-phage library; also called P1C1; P1C1(P2G5)
B4: P2F11 Fab (Fab, V domains shown)
VH: B3 VH with Q1D, L5V, S31N, L48V, S50L
VL: QSVLTQPPSASGTPGQRVTISCSGGNSNIKSNTVSWYRQLPGATPKLLIYKTSQRPSGVPDRFSGSKSDTSATLDIAGLQTGDEADYYCGTWDNSLSSVVFGGGTRVTVLG
notes: as for B1
B5: P1H6 Fab (Fab, V domains shown)
VH: B3 VH with L5V
VL: B3 VL with V4L, N26S, D31N, L97I, T98N, L107V, G111S
notes: as for B1

Experiments:
[1] = target: T1, PolyG-1620 peptide (S-atropisomer) (not fully specified (N-terminus); printed as GGC(1620)GGGGGG-Nle); assay: BLI, biotinylated peptide
T1 construct: Control peptide, not of natural origin
T1 peptide: GGC(ARS‑1620 (S-atropisomer))GGGGGG[Nle]

[2] = target: T1, PolyG-1620 peptide (S-atropisomer); assay: BLI; 'Affinity (nM)'
AHR2-1620 peptide = target: T2, AHR2-1620 peptide; assay: BLI; 'Affinity (nM)'
T2 construct: Origin printed as 'off target'
T2 peptide: VVVEPQQQLC(ARS‑1620 (S-atropisomer))QK

| Binder | Kd [1] [nM] | Kd [2] [nM] | Kd (AHR2-1620 peptide) [nM] |
| --- | --- | --- | --- |
| B1 | 14.1 | – | – |
| B2 | 39 | 40 | 51 |
| B3 | 85.4 | – | – |
| B4 | 21.7 | – | – |
| B5 | 24.6 | – | – |
